# Measurements published in PMC5913336, “True equilibrium measurement of transcription factor-DNA binding affinities using automated polarization microscopy”.
# T1: Bcd homeodomain (Drosophila melanogaster, UniProt P09081-2 77-166)
# T1 sequence: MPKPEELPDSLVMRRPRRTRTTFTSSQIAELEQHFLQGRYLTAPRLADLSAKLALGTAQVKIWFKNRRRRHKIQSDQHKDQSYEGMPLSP
# T2: Bicoid DBD-GST (Bcd) (UniProt P09081 83-170)
# T2 sequence: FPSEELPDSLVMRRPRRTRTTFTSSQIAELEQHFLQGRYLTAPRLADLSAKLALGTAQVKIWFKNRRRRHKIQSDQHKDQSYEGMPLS
# B1: Bcd oligo 6 (dsDNA)
# DNA 1: TCGACAGTAATCCCTA
# DNA 2: TAGGGATTACTGTCGA
# B2: Bcd oligo 8 (dsDNA)
# DNA 1: TCGACGTTAATCCCTA
# DNA 2: TAGGGATTAACGTCGA
# B3: Bcd competitor 13 (A5C) (dsDNA)
# DNA 1: TCGACGGTCATCCCTA
# DNA 2: TAGGGATGACGGTCGA
# B4: Bcd consensus CGGTAATCCCT (dsDNA)
# DNA 1: TCGACGGTAATCCCTA
# DNA 2: TAGGGATTACCGTCGA
# B5: Bcd competitor 8 (G3T) (dsDNA)
# DNA 1: TCGACGTTAATCCCTA
# DNA 2: TAGGGATTAAGGTCGA
# B6: Bcd oligo 4 (dsDNA)
# DNA 1: TCGACCGTAATCCCTA
# DNA 2: TAGGGATTACGGTCGA
# B7: Bcd competitor 10 (T4C) (dsDNA)
# DNA 1: TCGACGGCAATCCCTA
# DNA 2: TAGGGATTGCGGTCGA
# B8: Bcd competitor 15 (A5T) (dsDNA)
# DNA 1: TCGACGGTTATCCCTA
# DNA 2: TAGGGATAACGGTCGA
# B9: Bcd oligo 7 (dsDNA)
# DNA 1: TCGACGCTAATCCCTA
# DNA 2: TAGGGATTAGCGTCGA
# B10: Bcd competitor 14 (A5G) (dsDNA)
# DNA 1: TCGACGGTGATCCCTA
# DNA 2: TAGGGATCACGGTCGA
# Tests used:
# [1] = test system: Giant DBD-GST (Gt); experiment: competitive fluorescence anisotropy (HiP-FA); details: HiP-FA: 33 mM phosphate pH 7.0, 90 mM NaCl, 0.01% Tween 20, 0.1 mM DTT, 0.5% agarose; conventional titration and EMSA: 20 mM Tris-acetate pH 7.0, 50 nM …
# [2] = test system: Ttk-F DBD-GST; experiment: competitive fluorescence anisotropy (HiP-FA); details: HiP-FA: 33 mM phosphate pH 7.0, 90 mM NaCl, 0.01% Tween 20, 0.1 mM DTT, 0.5% agarose; conventional titration and EMSA: 20 mM Tris-acetate pH 7.0, 50 nM …
# [3] = test system: Caudal DBD-GST (Cad); experiment: competitive fluorescence anisotropy (conventional titration); details: HiP-FA: 33 mM phosphate pH 7.0, 90 mM NaCl, 0.01% Tween 20, 0.1 mM DTT, 0.5% agarose; conventional titration and EMSA: 20 mM Tris-acetate pH 7.0, 50 nM …
# [4] = target: T1, Bcd homeodomain; experiment: FP; 33 mM phosphate pH 7.0, 90 mM NaCl, 0.01% Tween 20, 0.1 mM DTT, 0.5% agarose; room temperature; details: tags: N-GST (pGEX-6P-1, kept)
# [5] = target: T2, Bicoid DBD-GST (Bcd); experiment: competitive fluorescence anisotropy (HiP-FA); mean of replicates 63.883, 64.716; HiP-FA: 33 mM phosphate pH 7.0, 90 mM NaCl, 0.01% Tween 20, 0.1 mM DTT, 0.5% agarose; conventional titration and EMSA: 20 mM Tris-acetate pH 7.0, 50 nM (sic) NaCl, 0.01% Tween-20, 0.1 mM DTT; details: protein: recombinant; tags: N-terminal GST; blunt, G:G mismatch at position 6
# [6] = target: T2, Bicoid DBD-GST (Bcd); experiment: competitive fluorescence anisotropy (HiP-FA); HiP-FA: 33 mM phosphate pH 7.0, 90 mM NaCl, 0.01% Tween 20, 0.1 mM DTT, 0.5% agarose; conventional titration and EMSA: 20 mM Tris-acetate pH 7.0, 50 nM (sic) NaCl, 0.01% Tween-20, 0.1 mM DTT; details: protein: recombinant; tags: N-terminal GST; blunt
# [7] = target: T2, Bicoid DBD-GST (Bcd); experiment: competitive fluorescence anisotropy (HiP-FA); mean of replicates 2.83, 2.8405; HiP-FA: 33 mM phosphate pH 7.0, 90 mM NaCl, 0.01% Tween 20, 0.1 mM DTT, 0.5% agarose; conventional titration and EMSA: 20 mM Tris-acetate pH 7.0, 50 nM (sic) NaCl, 0.01% Tween-20, 0.1 mM DTT; details: protein: recombinant; tags: N-terminal GST; blunt, G:G mismatch at position 6
# [8] = target: T2, Bicoid DBD-GST (Bcd); experiment: competitive fluorescence anisotropy (HiP-FA); mean of replicates 18.854, 22.285; HiP-FA: 33 mM phosphate pH 7.0, 90 mM NaCl, 0.01% Tween 20, 0.1 mM DTT, 0.5% agarose; conventional titration and EMSA: 20 mM Tris-acetate pH 7.0, 50 nM (sic) NaCl, 0.01% Tween-20, 0.1 mM DTT; details: protein: recombinant; tags: N-terminal GST; blunt, G:G mismatch at position 6
# [9] = target: T2, Bicoid DBD-GST (Bcd); experiment: competitive fluorescence anisotropy (HiP-FA); mean of replicates 29.656, 29.169; HiP-FA: 33 mM phosphate pH 7.0, 90 mM NaCl, 0.01% Tween 20, 0.1 mM DTT, 0.5% agarose; conventional titration and EMSA: 20 mM Tris-acetate pH 7.0, 50 nM (sic) NaCl, 0.01% Tween-20, 0.1 mM DTT; details: protein: recombinant; tags: N-terminal GST; blunt, G:G mismatch at position 6
# [10] = target: T2, Bicoid DBD-GST (Bcd); experiment: competitive fluorescence anisotropy (HiP-FA); mean of replicates 8.833, 9.124; HiP-FA: 33 mM phosphate pH 7.0, 90 mM NaCl, 0.01% Tween 20, 0.1 mM DTT, 0.5% agarose; conventional titration and EMSA: 20 mM Tris-acetate pH 7.0, 50 nM (sic) NaCl, 0.01% Tween-20, 0.1 mM DTT; details: protein: recombinant; tags: N-terminal GST; blunt, G:G mismatch at position 6
# [11] = printed reverse strand differs at base 6 of strand 1 (G / C), complement of the forward strand used
molecule,measurement,setting,value
Gt consensus oligo,Kd,[1],0.9 nM
Ttk-F consensus oligo,Kd,[2],48 nM
Cad consensus oligo,Kd,[3],0.05 nM
B1,Kd,[4],5.86 nM
B2,Kd,[4]; [11],2.83 nM
B3,Kd,[5],64.3 nM
B4,Kd,[6],2.2 nM
B5,Kd,[7],2.83 nM
B6,Kd,[4]; [11],5.02 nM
B7,Kd,[8],20.6 nM
B8,Kd,[9],29.4 nM
B9,Kd,[4]; [11],2.79 nM
B10,Kd,[10],8.98 nM
